Among the data in article PMC9332313, “Folding and Binding Mechanisms of the SH2 Domain from Crkl” (Biomolecules, 2022) are Kd, koff and kon values, retold here.

Square brackets hold non-standard residues; d marks the D form. Ends that are not written are not given here. * marks the point of attachment. pY = N[C@@H](Cc1ccc(OP(=O)(O)O)cc1)C(=O)O; Dansyl = CN(C)c1cccc2c(S(=O)(=O)*)cccc12

Assay [1] addresses T1, SH2 domain of Crkl protein (residues 1-111), H91A variant (UniProt P46109 1-111, H91A).
T1 construct: Crkl adaptor protein, SH2 domain, residues 1-111, His91 replaced by alanine; Site-directed mutant of m1 (QuikChange); source: E. coli BL21 (DE3), purified (HisTrap nickel column, desalting); not shown: His tag, N-terminal, kept
The assay can be described thus: stopped-flow fluorescence kinetics (FRET); dansyl-Pax112-123 constant at 2 μM mixed with Crkl-SH2 2 to 10 μM (pseudo-first-order, kon); koff by displacement of the preincubated 2 µM complex with excess non-dansylated Pax112-123 (30 μM); 283 K; 50 mM sodium-acetate pH 5.5, 0.5 M NaCl. As to conditions: both partners purified.

Assay [2] concerns the target T2, SH2 domain of Crkl protein (residues 1-111), H33A variant (UniProt P46109 1-111, H33A).
T2 construct: Crkl adaptor protein, SH2 domain, residues 1-111, His33 replaced by alanine; Site-directed mutant of m1 (QuikChange); source: E. coli BL21 (DE3), purified (HisTrap nickel column, desalting); not shown: His tag, N-terminal, kept
The assay is described as above. To be noted: both partners purified.

T2 sequence (P46109 1-111 H33A): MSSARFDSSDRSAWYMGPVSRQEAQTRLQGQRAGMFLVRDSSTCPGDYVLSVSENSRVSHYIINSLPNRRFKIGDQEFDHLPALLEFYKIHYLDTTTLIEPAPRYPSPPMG
T1 sequence (P46109 1-111 H91A): as the sequence (P46109 1-111 H33A) above, with A33H, H91A counted along it

B1: dansylated Pax_(112–123) peptide (Dans-GEEEHV-pY-SFPNK) (peptide)
peptide: Dansyl-GEEEHV[pY]SFPNK
notes: The dansyl group is the FRET acceptor of Trp14 of the SH2 domain; source: synthetic peptide, bought: GenScript
For orientation: Kd means a measure of binding affinity in units of concentration. One may read the koff as a measure of how fast the partners let go of each other. Broadly, the kon is the rate constant with which the complex forms. A lower kon goes with slower complex formation. In assay [1], B1 registered a dissociation constant Kd of 4.3 ± 0.2 µM, a koff of 24.1 ± 0.4 s⁻¹ and an on-rate constant (kon) of 5.6e+06 ± 300000 M⁻¹ s⁻¹. In assay [2], this molecule showed a Kd of 3.4 ± 0.4 µM, an off-rate (koff) of 22.8 ± 2.2 s⁻¹ and a kon of 6.7e+06 ± 400000 M⁻¹ s⁻¹.
